From patent US20250340632A1 (OSE IMMUNOTHERAPEUTICS, published 2025) come the findings set out here.

For orientation: EC50 (read off the curve) means the concentration that produces a half-maximal response. As usually defined, the EC50 is the concentration giving half of the maximal effect.

Experiment [1] concerns the target human SIRPg protein at the surface of cells (human T lymphocyte Jurkat cell line; T cells in PBMC) (human) (UniProt Q9P1W8). The experiment can be described thus: cytofluorometry on Jurkat cells, % of positive cells (not the MFI readout of Table 5).
For experiment [2] the target is unchanged. The experiment can be described thus: cytofluorometry (MFI) on human Jurkat cells, ED50.
Experiment [3] has as its target T1, human SIRPg protein at the surface of cells (human T lymphocyte Jurkat cell line; T cells in PBMC) (human, UniProt Q9P1W8 29-387).
T1 construct: whole, on cells; also called SIRPg on Jurkat cells
The experiment can be described thus: cytofluorometry (MFI) on human Jurkat cells, ED50. The protocol:
To measure binding of mouse anti-hSIRPg on human cell lines, cells were first washed in cold-PSE (Phosphate Buffer Saline with 2% of heat-inactivated bovine serum, 2 mM EDTA), blocked for 30 min at room temperature with a mix of 50-fold diluted human Fc-block (#564220, BD Pharmingen) and 20-fold diluted/heat-inactivated human serum (SAB, # H4522-100, Sigma Aldrich) and then incubated for 10 min on ice to slow the cell metabolism. Antibodies in range were incubated for 30 min on ice, and cells were washed with cold-PSE before staining for 30 min on ice with an Alexa 647-labelled goat anti-mouse IgG at 5 μg/ml (#A21236; Fisher Scientific, Illkirch, France). Samples were analyzed on CytoFlex cytofluorometer (Beckman Coulter France, Villepinte).

Experiment [4] addresses T2, recombinant human SIRPg protein with His Tag (#11828-H08H, Sino Biological) (human, UniProt Q9P1W8 29-360, biotinylated in the ELISA binding assay (sites not given)).
T2 construct: Bought protein; also called human SIRPg His; SIRPg-His
The experiment can be described thus: SIRPg binding ELISA, DO 450 nm (legend: immobilized SIRPg-His at 1 µg/ml; method 1.4: captured antibody, biotinylated SIRPg). (An ELISA detects its analyte on a solid surface through an enzyme-linked reagent.)

For experiment [5], the target named is human SIRPa on SIRPa positive U937 human monocyte cell line (human) (UniProt P78324). The experiment is described as follows: binding to U937 cells expressing SIRPa, ED50.
Experiment [6] addresses T3, recombinant human SIRPa protein with His Tag (#11612-H08H, Sino Biological) (human, UniProt P78324 31-370).
T3 construct: Bought protein; also called human SIRPa His; SIRPa-His
The experiment is described as follows: competition ELISA on immobilized SIRPa-His against biotinylated CD47-Fc at 3 µg/ml, streptavidin-peroxidase detection [lower graph].

Experiment [7] has as its target T3, recombinant human SIRPa protein with …. The experiment can be described thus: ELISA on immobilized SIRPa, ED50.
The target of experiment [8] is T2, recombinant human SIRPg protein with …. The experiment can be described thus: SIRPg binding ELISA, DO 450 nm (legend: immobilized SIRPg-His at 1 µg/ml; method 1.4: captured antibody, biotinylated SIRPg). This is another data set of the same source.

Like-named read-outs stand apart in the source and are kept apart here.

“LSB2.20 antibody (Biolegend, reference 336602)” yielded a concentration giving a half-maximal response (EC50 (read off the curve)) in experiment [1] of 0.2 µg/mL. Further, the EC50 in experiment [2] stood at 6.97 µg/mL.

For the molecule “OX119 antibody (SantaCruz reference sc-53114)”, the 50% effective concentration (EC50 (read off the curve)) in experiment [1] amounted to 0.2 µg/mL. In experiment [2], this molecule returned an EC50 of 3.88 µg/mL.

B1: 2H9 recombinant chimeric anti-SIRPg antibody (antibody, human IgG4 S228P, kappa, V domains shown)
VH: DVQLVESGGGLVQPGGSRKLSCAASGFTFSSFGMHWVRQAPEKGLEWVAYISSGSTTIYYADTVKGRFTISRDNPKNTLFLQMTSLRSEDTAMYFCARWTVVTNCFDYWGQGTTLTVSS
VL: QIVLTQSPALMSASPGEKVTMTCSASSSISSMYWYQQKPRSSPKPWIYLTSNLASGVPARFSGSGSGTSYSLTISSMEAEDAATYYCQQWSSNLTFGAGTKLELKR
notes: Mouse VH/VL on human IgG4 (S228P)
In experiment [3], B1 returned a half-maximal effective concentration (EC50) of 0.426 µg/mL.

B2: 26F10 recombinant chimeric anti-SIRPg antibody (antibody, human IgG4 S228P, kappa, V domains shown)
VH: EVQLQQSGTELVRSGASVKLSCTTSGFNIKDYYMHWVKQRPEQGLEWIGWIDPENGDTEYAPKFQGKATMTADTSSNTAYLQLSSLTSEDTAVYYCNAYDGYYGAMDYWGQGTSVTVSS
VL: DVVMPQTPLSLPVSLGDQASISCRSSQSLVHSNGNTYLHWYLQKPGQSPKLLIYKVSNRFSGVPDRFSGSGSGTDFTLKISRVEAEDLGVYFCSQNTHVPLTFGAGTKLELKR
notes: Mouse VH/VL on human IgG4 (S228P) and human CL kappa
As to B2, the “EC50 (read off the curve)” value in experiment [4] was about 0.02 µg/mL. The molecule also displayed an EC50 in experiment [3] of 0.156 µg/mL.

B3: 13F7 recombinant chimeric anti-SIRPg antibody (antibody, human IgG4 S228P, kappa, V domains shown)
VH: QVQLQQSGAELVRPGVSVKVSCKGSGYTFTDYAMHWVKQSHPKSLEWIGVIGTYYGDAYYNQNFKGKATMTVDKSSSTAYMELARLTSEDSAIYYCARRAGTSDWFAYWGQGTLVTVSA
VL: NIVLTQSPASLAVSLGQRATISCRASESVDSYGNSFMHWYQQKPGQPPKLLIYRASNLESGIPARFSGSGSRTDFTLTINPVEADDVATYYCQQSNEDPPTFGGGTKLEIKR
notes: as for B2
In turn, B3 displayed an EC50 in experiment [3] of 0.281 µg/mL.

B4: 3H8 recombinant chimeric anti-SIRPg antibody (antibody, human IgG4 S228P, kappa, V domains shown)
VH: QIQLVQSGPELKKPGETVNISCMASGYSFTNYGMNWVKQAPGKGLKWMGWINTYTGEPTYADDFKGRFAFSLETSASTAYLQINNLKNEDMATYFCARQPYDYVPSFPYWGQGTLVTVSA
VL: DIVMTQSHKFMSTSVGDRVNITCKASQDVSTAVAWYQLKPGQSPKLLIYWASIRHTGVPDRFTGSGSGTDYTLTISSVQAEHLALYYCQQHYSTPWTFGGGTKLEIKR
notes: as for B2
In turn, B4 came in with an EC50 in experiment [3] of 0.083 µg/mL.

B5: Kwar23 antibody (antibody, V domains shown)
VH: EVQLQQSGAELVKPGASVKLSCTASGFNIKDYYIHWVQQRTEQGLEWIGRIDPEDGETKYAPKFQDKATITADTSSNTAYLHLSSLTSEDTAVYYCARWGAYWGQGTLVTVSS
VL: QIVLTQSPAIMSASPGEKVTLTCSASSSVSSSYLYWYQQKPGSSPKLWIYSTSNLASGVPARFSGSGSGTSYSLTISSMEAEDAASYFCHQWSSYPRTFGAGTKLELK
On to B5, for which the concentration for a half-maximal effect (EC50) in experiment [5] was determined as 0.0719 µg/mL; in experiment [7], 0.00469 µg/mL. The “EC50 (read off the curve)” value in experiment [4] is about 0.01 µg/mL; in experiment [8] it was about 0.006 µg/mL. Further, the “IC50 (read off the curve)” value in experiment [6] is about 0.7 µg/mL.

B6: 11B5 recombinant chimeric anti-SIRPg antibody (antibody, human IgG4 S228P, kappa, V domains shown)
VH: EVQLVESGGDLVKPGGSLKLSCAASGFAFSDYYMYWVRQTPEKRLEWVATISDDGIYTYYPDSVKGRFTISRDNAKNNLFLQMSSLKSEDTAMYYCARGGYRDYYAMDYWGQGTSVTVSS
VL: DIQMTQSPASLSASVGETVTITCRASENIYSYLAWYQQKQGKSPQLLVYNGITLAEGVPSRFSGSGSGTQFSLKINSLQPEDFGDYYCQHHYGSPRTFGGGTTLEIKR
notes: as for B2
Turning to B6, the “EC50 (read off the curve)” value is about 0.007 µg/mL in experiment [4] and about 0.006 µg/mL in experiment [8]. Further, in experiment [3], the 50% effective concentration (EC50) was found to be 0.195 µg/mL.
